Test results from patent US20250109178A1 (published 2025).
Like-named read-outs stand apart in the source and are kept apart here.

What was measured:
Test in all cases: ELISA
[1] = biological target: T1, Fc-NKG2D.wt (natural human NKG2D ectodomain fused to the C-terminus of human IgG1 Fc)
[2] = biological target: T1, Fc-NKG2D.wt (natural human NKG2D …); remark: listed apart in the source
[3] = biological target: T1, Fc-NKG2D.wt (natural human NKG2D …); remark: listed apart in the source
eNKG2D2 S|Y = biological target: eNKG2D2 S|Y
eNKG2D14 L|Y = biological target: eNKG2D14 L|Y
eNKG2D4 V|Y = biological target: eNKG2D4 V|Y
eNKG2D3 T|Y = biological target: eNKG2D3 T|Y

B1: rituximab-ULBP2.AA MicAbody (bispecific antibody)
heavy: not shown
light: QIVLSQSPAILSASPGEKVTMTCRASSSVSYIHWFQQKPGSSPKPWIYATSNLASGVPVRFSGSGSGTSYSLTISRVEAEDAATYYCQQWTSNPPTFGGGTKLEIKTVAAPSVFIFPPSDEQLKSGTASVVCLLNNFYPREAKVQWKVDNALQSGNSQESVTEQDSKDSTYSLSSTLTLSKADYEKHKVYACEVTHQGLSSPVTKSFNRGECAPTSSSGGGGSEPHSLSYDITVIPKFRPGPRWCAVQGQVDEKTFLHYDCGNKTVTPVSPLGKKLNVTTAWKAQNPVLREVVDILTEQLWDIQLENYTPKEPLTLQARMSCEQKAEGHSSGSWQFSFDGQIFLLFDSEKRMWTTVHPGARKMKEKWENDKVVATMFWSWSMGDCIGWLEDFLMGMDSTLEPS
EC50 [1]: 655 nM

B2: rituximab-ULBP2.C MicAbody (bispecific antibody)
heavy: not shown
light: QIVLSQSPAILSASPGEKVTMTCRASSSVSYIHWFQQKPGSSPKPWIYATSNLASGVPVRFSGSGSGTSYSLTISRVEAEDAATYYCQQWTSNPPTFGGGTKLEIKTVAAPSVFIFPPSDEQLKSGTASVVCLLNNFYPREAKVQWKVDNALQSGNSQESVTEQDSKDSTYSLSSTLTLSKADYEKHKVYACEVTHQGLSSPVTKSFNRGECAPTSSSGGGGSEPHSLSYDITVIPKFRPGPRWCAVQGQVDEKTFLHYDCGNKTVTPVSPLGKKLNVTTAWKAQNPVLREVVDILTEQLWDIQLENYTPKEPLTLQARMSCEQKAEGHSSGSWQFSFDGQIFLLFDSEKRMWTTVHPGARKMKEKWENDKVVATILWQTSMGDCIGWLEDFLMGMDSTLEPS
EC50 [1]: 130 nM

B3: rituximab-ULBP2.AB MicAbody (bispecific antibody)
heavy: not shown
light: QIVLSQSPAILSASPGEKVTMTCRASSSVSYIHWFQQKPGSSPKPWIYATSNLASGVPVRFSGSGSGTSYSLTISRVEAEDAATYYCQQWTSNPPTFGGGTKLEIKTVAAPSVFIFPPSDEQLKSGTASVVCLLNNFYPREAKVQWKVDNALQSGNSQESVTEQDSKDSTYSLSSTLTLSKADYEKHKVYACEVTHQGLSSPVTKSFNRGECAPTSSSGGGGSEPHSLSYDITVIPKFRPGPRWCAVQGQVDEKTFLHYDCGNKTVTPVSPLGKKLNVTTAWKAQNPVLREVVDILTEQLWDIQLENYTPKEPLTLQARMSCEQKAEGHSSGSWQFSFDGQIFLLFDSEKRMWTTVHPGARKMKEKWENDKVVATLMWQWSMGDCIGWLEDFLMGMDSTLEPS
EC50 [1]: 389 nM

B4: rituximab-ULBP2.S3 MicAbody (bispecific antibody)
heavy: not shown
light: QIVLSQSPAILSASPGEKVTMTCRASSSVSYIHWFQQKPGSSPKPWIYATSNLASGVPVRFSGSGSGTSYSLTISRVEAEDAATYYCQQWTSNPPTFGGGTKLEIKRTVAAPSVFIFPPSDEQLKSGTASVVCLLNNFYPREAKVQWKVDNALQSGNSQESVTEQDSKDSTYSLSSTLTLSKADYEKHKVYACEVTHQGLSSPVTKSFNRGECAPTSSSGGGGSEPHSLSYDITVIPKFRPGPRWCAVQGQVDEKTFLHYDCGNKTVTPVSPLGKKLNVTTAWKAQNPVLREVVDILTEQLWDIQLENYTPKEPLTLQARMSCEQKAEGHSSGSWQFSFDGQIFLLFDSEKRMWTTVHPGARKMKEKWENDKVVATKLYLWSMGDCIGWLEDFLMGMDSTLEPS
EC50 [2]: 52.7 nM

B5: ULBP2.wt rituximab-MicAbody (bispecific antibody)
heavy: not shown
light: QIVLSQSPAILSASPGEKVTMTCRASSSVSYIHWFQQKPGSSPKPWIYATSNLASGVPVRFSGSGSGTSYSLTISRVEAEDAATYYCQQWTSNPPTFGGGTKLEIKRTVAAPSVFIFPPSDEQLKSGTASVVCLLNNFYPREAKVQWKVDNALQSGNSQESVTEQDSKDSTYSLSSTLTLSKADYEKHKVYACEVTHQGLSSPVTKSFNRGECAPTSSSGGGGSEPHSLSYDITVIPKFRPGPRWCAVQGQVDEKTFLHYDCGNKTVTPVSPLGKKLNVTTAWKAQNPVLREVVDILTEQLRDIQLENYTPKEPLTLQARMSCEQKAEGHSSGSWQFSFDGQIFLLFDSEKRMWTTVHPGARKMKEKWENDKVVAMSFHYFSMGDCIGWLEDFLMGMDSTLEPS
EC50 [3]: 1.41 nM | EC50 [2]: 1.02 nM

B6: ULBP2.wt (bispecific antibody)
heavy: not shown
light: QIVLSQSPAILSASPGEKVTMTCRASSSVSYIHWFQQKPGSSPKPWIYATSNLASGVPVRFSGSGSGTSYSLTISRVEAEDAATYYCQQWTSNPPTFGGGTKLEIKRTVAAPSVFIFPPSDEQLKSGTASVVCLLNNFYPREAKVQWKVDNALQSGNSQESVTEQDSKDSTYSLSSTLTLSKADYEKHKVYACEVTHQGLSSPVTKSFNRGECAPTSSSGGGGSEPHSLSYDITVIPKFRPGPRWCAVQGQVDEKTFLHYDCGNKTVTPVSPLGKKLNVTTAWKAQNPVLREVVDILTEQLRDIQLENYTPKEPLTLQARMSCEQKAEGHSSGSWQFSFDGQIFLLFDSEKRMWTTVHPGARKMKEKWENDKVVAMSFHYFSMGDCIGWLEDFLMGMDSTLEPS
EC50 (eNKG2D2 S|Y): 34.8 nM | EC50 (eNKG2D14 L|Y): 87.6 nM | EC50 (eNKG2D4 V|Y): 35.8 nM | EC50 (eNKG2D3 T|Y): 31.1 nM
